3 molecules from article PMC7826279 (Nucleic Acids Research, 2021) can be followed below.

What all share (experiment): pull-down
Experiment [1] has as its target phosphorylated CTD-GFP (S. pombe, UniProt P36594 1549-1751, phosphorylated (sites not told for this preparation)).
In experiment [2] the target is T1, Ssu72-His (S. pombe, UniProt O42868 1-197).
T1 sequence (looked up): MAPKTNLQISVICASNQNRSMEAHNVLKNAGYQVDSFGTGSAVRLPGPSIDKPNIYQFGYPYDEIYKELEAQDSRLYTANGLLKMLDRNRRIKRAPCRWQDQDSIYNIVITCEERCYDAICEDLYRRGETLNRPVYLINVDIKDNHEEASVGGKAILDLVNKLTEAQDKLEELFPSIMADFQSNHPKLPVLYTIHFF

In experiment [3] the target is T2, Sty1-His (S. pombe, UniProt Q09892 1-349).
T2 sequence (looked up): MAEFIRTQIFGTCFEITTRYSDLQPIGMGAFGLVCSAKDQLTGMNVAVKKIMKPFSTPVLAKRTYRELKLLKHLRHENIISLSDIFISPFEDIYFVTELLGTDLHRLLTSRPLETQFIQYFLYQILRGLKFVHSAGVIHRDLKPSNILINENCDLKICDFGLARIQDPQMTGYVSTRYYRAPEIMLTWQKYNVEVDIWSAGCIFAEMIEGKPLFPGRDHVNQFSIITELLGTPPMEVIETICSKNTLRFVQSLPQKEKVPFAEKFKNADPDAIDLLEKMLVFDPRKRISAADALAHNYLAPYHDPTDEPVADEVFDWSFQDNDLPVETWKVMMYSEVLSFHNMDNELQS

Experiment [4] has as its target T3, Sty1 (K49R)-His (S. pombe, UniProt Q09892 1-349, K49R).
T3 sequence (looked up): T2 sequence (looked up) with K49R

Where a chain is given by its changes, count along the chain named. Names and notes keep the numbering of the source.

phosphorylated CTD-GFP, sequence (P36594 1549-1751): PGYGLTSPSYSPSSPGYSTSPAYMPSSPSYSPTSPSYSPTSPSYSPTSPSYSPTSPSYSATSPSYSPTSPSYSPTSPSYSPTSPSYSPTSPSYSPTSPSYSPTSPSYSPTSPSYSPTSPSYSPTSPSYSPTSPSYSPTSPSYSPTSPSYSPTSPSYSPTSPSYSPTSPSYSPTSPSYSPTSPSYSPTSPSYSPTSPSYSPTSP

B1: Pin1-GST (natural protein, S. pombe, UniProt O74448 1-175, looked up)
chain: MSNTGLPKPWIVKISRSRNRPYFFNTETHESLWEPPAATDMAALKKFIANELQESVTPTEASNSPKIRASHLLVKHRESRRPSSWKEEHITRSKEEARKLAEHYEQLLKSGSVSMHDLAMKESDCSSARRGGELGEFGRDEMQKPFEDAAFALKPGEISGVVETSSGFHIIQRHA
For B1, the binding result in experiment [1] and in experiment [2] was “binds” in each case.

B2: Pin1 (S79E)-GST (natural protein, S. pombe, UniProt O74448 1-175, looked up)
chain: B1 chain with S79E
In the case of B2, the binding result in experiment [1] is “binds”.

B3: GST-Rpb1-CTD (domain or fragment)
chain: not shown
On to B3, for which the binding result in experiment [3] and in experiment [4] was “binds” throughout.
